Here are results for two molecules from PMC10700546, “Atg18 oligomer organization in assembled tubes and on lipid membrane scaffolds” (Nature Communications, 2023).

Positions count from the first letter of the chain named. Numbers in names are those of the source.

Series [1] deals with T1, Autophagy-related protein 18 (Atg18), wildtype (Saccharomyces cerevisiae), P43601.
T1 chain: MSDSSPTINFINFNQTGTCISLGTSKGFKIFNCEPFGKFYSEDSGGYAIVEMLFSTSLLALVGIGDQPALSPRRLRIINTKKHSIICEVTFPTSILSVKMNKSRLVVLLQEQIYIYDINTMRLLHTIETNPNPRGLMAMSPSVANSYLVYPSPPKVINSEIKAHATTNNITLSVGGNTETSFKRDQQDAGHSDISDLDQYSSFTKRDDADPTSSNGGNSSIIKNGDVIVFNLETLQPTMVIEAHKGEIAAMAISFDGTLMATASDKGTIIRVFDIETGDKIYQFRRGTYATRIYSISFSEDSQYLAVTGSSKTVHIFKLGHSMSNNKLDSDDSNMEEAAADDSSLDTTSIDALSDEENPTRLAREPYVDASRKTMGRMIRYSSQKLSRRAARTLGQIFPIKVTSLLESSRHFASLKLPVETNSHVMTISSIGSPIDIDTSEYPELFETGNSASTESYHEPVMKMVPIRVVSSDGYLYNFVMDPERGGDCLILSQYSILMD
The series is described as follows: single-particle cryo-EM, 2D classification; 18 uM soluble Atg18 in high-salt buffer (50 mM TRIS, 500 mM NaCl, 10 mM KPO4, 1 mM DTT, pH 7.5); monomer and dimer classes. To be noted: remark: other sources report otherwise.

Series [2] deals with the molecule itself. The series is described as follows: cryo-EM structure; helical reconstruction of Atg18 tubes; 20 uM tube solution in tube buffer (20 mM HEPES, 100 mM KAc, 1 mM DTT, pH 7.2); self-assembly into a helical lattice.

B1: Autophagy-related protein 18 (Atg18), wildtype, P43601 1-500 (natural protein)
chain: T1 chain
Consider B1, for which the stoichiometry N in series [1] is 2.

B2: Atg18-P72A/R73A (natural protein, Saccharomyces cerevisiae, UniProt P43601 1-500, looked up)
chain: T1 chain with P72A, R73A
notes: Atg18, Saccharomyces cerevisiae, Uniprot ID P43601, with P72A and R73A; Same construct as the wild type apart from the two substitutions; also called Atg18-PR72AA; PR72AA; source: E. coli BL21(DE3), purified (Ni-NTA, TEV cleavage, second Ni-NTA, gel filtration); not shown: 6xHis, N-terminal, cleaved
Consider B2, for which, in series [2], the binding result was “binds”.
